The assay concerns the target FLAG-RepoMan-Ubc9. As to the kind of experiment: co-immunoprecipitation (IP anti-HA, immunoblot anti-FLAG, quantified with ImageJ). The note with it: 293FT cells; lane 18; with CFP-SUMO2(R59E); ratio of SUMOylated to non-SUMOylated FLAG-RepoMan(WT)-Ubc9 co-precipitated with HA-lamin A; input ratio 0.99 (lane …).

For the substance “HA–lamin A (WT) (from UniProt P02545) V494E; V495E”, the other: SUMOylated/non-SUMOylated came out at 0.31.

These data come from publication PMC8445599.
